From PMC11236705 (2024)

Tests used:
Test in all cases: SPR
GGC_6 = target: GGC_6
GGC_13 = target: GGC_13
GGC_5 = target: GGC_5

B1: ghrelin receptor ICL3-specific antibody (antibody, V domains shown)
VH: EVQLQQSGAELVRPGASVKLSCKASGYTFTDYEMHWVKQTPVHGLEWIGAIDPETGGTVYNQKFKGKATLTADISSTTAYMELRSLTSEDSAVYFCISEDIDESKDYWGQGTTLTVSS
VL: DIVMTQSPSSLAVSAGEKVTLSCKSSQSLFNSRTRKNYLAWYQQKPGLSPTLLIYWASTRKSGVPDRFTGSGSGTDFTLTITSVQAEDLAVYYCKQSYYLRTFGGGTKLEIK
GGC_6
  Kd: 789 nM
GGC_13
  Kd: 406 nM
GGC_5
  Kd: 415 nM
